Reference: PMC11033462

What was measured:
[1] = target: PLAA p.Ile609Thr, Myc-tagged (human) (UniProt Q9Y263); test: co-IP; Myc-PLAA overexpressed in HEK293T, captured from cleared lysate on Myc-beads (4°C, 2 h), eluate probed by western blot (anti-VCP, anti-SAKS1, anti-MYC); p97 band divided by the Myc-PLAA band
[2] = target: PLAA p.Leu795Met, Myc-tagged (human) (UniProt Q9Y263); test: as above
[3] = target: PLAA p.Ile609Thr, Myc-tagged (human) (UniProt Q9Y263); test: affinity purification with mass spectrometry; Myc-PLAA overexpressed in HEK293T, captured from cleared lysate on Myc-beads (20 mM HEPES pH 7.5, 100 mM NaCl, 0.2% n-dodecyl-β-D-maltoside, 4°C, 2 h), eluted with 10 M urea, LC-MS/MS; cut off 5-fold enrichment over untransfected controls; protein abundance as a ratio to PLAA
[4] = target: PLAA p.Leu795Met, Myc-tagged (human) (UniProt Q9Y263); test: as above

percent decrease of p97 in the IP (ratio to PLAA) against WT PLAA [1]: 80%
percent decrease of p97 in the IP (ratio to PLAA) against WT PLAA [2]: 50%
percent decrease of p97 in the IP (ratio to PLAA) against WT PLAA [3]: 50%
percent decrease of p97 in the IP (ratio to PLAA) against WT PLAA [4]: 20%
Substance: VCP/p97 (from UniProt P55072 1-806) (natural protein)
